Measured values taken from patent publication US20260008856A1, “METHODS OF TREATING DISEASE USING ANTI-IL1RAP ANTIBODIES AND ANTIBODY DRUG CONJUGATES” (Bluefin Biomedicine, Inc., priority 2022, published 2026).

Tests used:
EOL-1 = experiment: Flow cytometry binding to endogenous cell line EOL-1; type: cell-based, human; design: key to binding to EOL-1 by flow cytometry: (−): No binding; (+): Weak binding; (++): Moderate binding; (+++): Strong binding; settings: primary antibody 1 ug/ml
Method: (§1) Staining for flow cytometry was performed in 1× cold PBS with 0.5% BSA. Primary antibodies (1 ug/ml) were incubated with live cells on ice for 30 minutes, after a brief wash, cells were incubated with Alexa Fluro® 488-conjugated anti-human IgG secondary antibody @1:1000 (709-546-149, Jackson ImmunoResearch). Acquisition of the data was performed on a MACSQuant® Flow Cytometers (Miltenyi Biotec) and analyzed with FlowJo software.
(§2) Over 1,000 hits were identified that bind strongly to CHO-human IL1RAP, but not parental CHO cells. 68 clones were selected for molecular cloning. Based on unique CDR3 sequences from the heavy chain variable domain, 35 antibodies from 13 families were confirmed by binding in IL1RAP positive cell lines EOL1 and Karpas 299 (see Table 8) by flow cytometry (MACSQuant® www.miltenybiotec.com).

MOLT3 = experiment: Flow cytometry binding to endogenous cell line MOLT3; type: cell-based; design: key: (−): No binding; (+): Weak binding; (++): Moderate binding; (+++): Strong binding; settings: primary antibody 1 ug/ml
Method: as §1

recombinant human IL1RAP = biological target: T1, recombinant human IL1RAP (Homo sapiens, UniProt Q9NPH3); experiment: Binding competition binning on Octet; settings: Protein A biosensors
T1 construct: MBP-IL1RAP(S21-T367)-; 8xHis (C); made in house; host or cells: CHO (ExpiCHO transient expression)
Method: Binding Competition binning: Binding competition among different antibodies was determined using a real-time, interferometry assay on an Octet Red™ instrument with Protein A-conjugated biosensors. To assess whether two antibodies competed for binding to a recombinant IL1RAP protein, the assay was performed as follows. Protein A biosensors were first submerged into wells containing 10 ug/mL of individual monoclonal antibodies for 5 minutes. Following the capture step, the biosensors were dipped briefly (15 seconds) into buffer and then any unoccupied sites on the biosensor were saturated by submerging them for 5 minutes into wells containing 100 ug/mL of an irrelevant monoclonal antibody. The Octet™ biosensors were then dipped briefly (15 seconds) in buffer before immersion for 1 minute into wells containing recombinant IL1RAP. The biosensors were dipped briefly (15 seconds) in buffer before immersion for 1 minute into wells containing a second recombinant antibody.
For the control case where the second antibody was the same as the first, there was no increase in signal, because there was no additional binding to the recombinant target.
For the control case where buffer was used instead of the first antibody, no recombinant target bound the non-quenching antibody on the biosensor and no second antibody bound the biosensor.
Selected antibodies were evaluated in pairs for their ability to simultaneously bind recombinant human IL1RAP. The analysis was performed by Octet™ loaded with Protein A Biosensors. A total of five different bins were determined as follows.

Karpas 299 = experiment: Flow cytometry binding to endogenous cell line Karpas 299; type: cell-based, human; design: key to binding to Karpas 299 by flow cytometry: (−): No binding; (+): Weak binding; (++): Moderate binding; (+++): Strong binding; settings: primary antibody 1 ug/ml
Method: as §1, §2

Molecule | binding to EOL-1 by flow cytometry (EOL-1) | binding to MOLT3 by flow cytometry (MOLT3) | competition for binding, bin (2) (recombinant human IL1RAP) | binding to Karpas 299 by flow cytometry (Karpas 299) | competition for binding, bin (1) (recombinant human IL1RAP)
34H8_21B4: human anti-IL1RAP antibody, VH SEQ ID NO: 185, VL SEQ ID NO: 189 (antibody, V domains shown) VH: QVQLQESGPGLVKPSETLSLTCAVSGYSASGLYYWAWIRQPPGKGLEWIGNIYHSGRTYYNPSLESRVSISLDTSKHQVSLKLKSVTYADTAVYFCARDRFDGFDIWGQGTMVTVSS VL: EIVMTQSPATLSVSPGERATLSCRASQTINNILAWYQQKPGQAPRLLIYGASTRATGIPARFSGSGSGTEFTLTISSLQSEDFAVYYCQQYNNWPLTFGGGTKLEIK | (+++) | (+) |  |  | 
10C8_15A1: human anti-IL1RAP antibody, VH SEQ ID NO: 9, VL SEQ ID NO: 13 (antibody, V domains shown) VH: QVQLVESGGGVVQPGRSLRISCAASGFTFRSYGMHWVRQAPGKGLEWVAIIWHDESYKYYVDSVKGRFTISRDNSKNTLYLQMNSLRAEDTAVYYCARGDYYGSGSYYDAFDIWGQGTMVTVSS VL: DIQMTQSPSSLSASVGDRVIITCRASQGISNYLAWFQQKPGKCPNLLIYAASTLRSGVPSRFSGSGSGTDFTLTISSLQPEDVATYYCQKYNSAPYTFGQGTKVEIK | (+++) | (−) | competed with each other |  | 
34D1_21B3: human anti-IL1RAP antibody, VH SEQ ID NO: 136, VL SEQ ID NO: 137 (antibody, V domains shown) VH: QGQLVESGGGVVQPGRSLRLSCAASGFTFSSYTLHWVRQAPGKGLEWVAVIWYDGSNKYYVDSVKGRFTISRDNSKNTLYLQMNSLRAEDTAVYYCAREYGSGSYYNVYYGMDVWGQGTTVTVSS VL: DIVMTQSPLSLPVTPGEPASISCRSSQSLLHSNGYKYLDWYLQKAGQSPHLLIYLGSNRASGVPDRFSGSGSGTDFTLKISRVEAEDVGFYYCMQTLQIPLTFGGGTKLEIK | (+++) | (+) |  | (++) | 
32C12_21A4: human anti-IL1RAP antibody, VH SEQ ID NO: 32, VL SEQ ID NO: 36 (antibody, V domains shown) VH: QVQLVESGGGVVQPGRSLRLSCAASGFTFRNYGIHWVRQAPGKGLEWVAVIWYDGSNKFYADSVKGRFTISRDNSKNTLYLQMNSLRVEDTAVYYCAREEGIAVAPFDYWGQGTLVTVSS VL: DIQMTQSPSSLSASVGDRVAITCRANQSIASYLNWYQQKPGKAPKLLIYGASSLQNGVPSRFSGSGSRTDFTLTISSLQPEDFATYYCQQSYSTEITFGQGTRLEIK | (+++) | (+) | competed with each other |  | 
41G4_15B6: human anti-IL1RAP antibody, VH SEQ ID NO: 116, VL SEQ ID NO: 36 (antibody, V domains shown) VH: QVQLVESGGGVVQPGRSLRLSCAASGFTFRNYGMHWVRQAPGKGLEWVAVIWYDGSNKFYADSVKGRFTISRDNSKNTLYLQMNSLRVEDTAVYYCAREEGIAVAPFDYWGQGTLVTVSS VL: DIQMTQSPSSLSASVGDRVAITCRANQSIASYLNWYQQKPGKAPKLLIYGASSLQNGVPSRFSGSGSRTDFTLTISSLQPEDFATYYCQQSYSTEITFGQGTRLEIK | (+++) |  |  |  | 
38E10_21C3: human anti-IL1RAP antibody, VH SEQ ID NO: 74, VL SEQ ID NO: 78 (antibody, V domains shown) VH: EVQLLESGGGLVQPGGSLRLSCAASGFTFSNYAMTWVRQAPGKGLEWVSSISISRAGTYYADSVKGRFTISRDNSKNTLNLQMNSLRAEDTAEYYCAREYYYGMDVWGQGTTVTVSS VL: EIVLTQSPATLSLSPGERATLSCRASQSVSSYLAWYQQKPGQTPRLLIYDASNRATGIPARFSGSGSGTDFTLTISSLETEDFAVYYCQQLINWPLTFGGGTKLEIK | (+++) | (+) |  |  | competed with each other
31F9_21A1: human anti-IL1RAP antibody, VH SEQ ID NO: 118, VL SEQ ID NO: 120 (antibody, V domains shown) VH: QVQLVESGGGMVQPGRSLRLSCTASGFTFSSHGMHWVRQAPGKGLEWVAVIWFDGSNEYYVDSVKGRFTISRDNSKNTLYLQMNSLRAEDTAVYYCARENVYGSGWFFDYWGQGTLVTVSS VL: EIVMTQSPATLSVSPGERASLSCRASQSVGSNLAWYQQKPGQAPRLLIFGASTRATGIPARFSGSRSGTEFTLTISSLQSEDFALYYCQQYNNWPPWTFGQGTKVEIK | (+++) | (+) |  |  | 
32F9_21A5: human anti-IL1RAP antibody, VH SEQ ID NO: 123, VL SEQ ID NO: 124 (antibody, V domains shown) VH: QLQLVESGGGVVQPGRSLRLSCAASGFTFSSHGMHWVRQAPGKGLEWVAVIWYDGSSEYYADSVKGRFTISRDNSKNTLYLQMNSLRAEDTAVYYCARENVYGSGWFFDYWGQGSLVTVSS VL: EIVMTQSPATLSVSPGERASLSCRASQSVGSNLAWYQQKPGQAPRLLIFGASTRATGIPARFSGSRSGTEFTLTISSLQSEDFALYYCQQYNNWPPWTFGQGTKLEIK | (+++) | (+) |  |  | 
33E9_21A6: human anti-IL1RAP antibody, VH SEQ ID NO: 125, VL SEQ ID NO: 126 (antibody, V domains shown) VH: QLQLVESGGGVVQFGRSLRLSCAASGFTFSSHGMHWVRQAPGKGLEWVAVIWYDGSSEYYADSVKGRFTISRDNSKNTLYLQMNSLRAEDTAVYYCARENVYGSGWFFDYWGQGTLVTVSS VL: EIVMTQSPATLSVSPGERASLSCRASQSVGSNLAWYQQKPGQAPRLLIFGASTRATGIPARFSGSRSGTEFTLTISSLQSEDFALYYCQQYNNWPPWTFGQGTKLEIK | (+++) | (+) |  |  | 
32D4_21D6: human anti-IL1RAP antibody, VH SEQ ID NO: 121, VL SEQ ID NO: 122 (antibody, V domains shown) VH: QLQLVESGGGVVQPGRSLRLSCAASGFTFSSYGMHWVRQAPGKGLEWVAVIWYDGSSEYYADSVKGRFTISRDNSKNTLYLQMNSLRAEDTAVYYCARENVYGSGWFFDYWGQGTLVTVSS VL: EIVMTQSPATLSVSPGERASLSCRASQSVGSNLAWYQQKPGQAPRLLIFGASTRATGIPARFSGSRSGTEFTLTISSLQSEDFALYYCQQYNNWPPWTFGQGTKVEIK | (+++) | (+) |  |  | 
35D11_22A1: human anti-IL1RAP antibody, VH SEQ ID NO: 127, VL SEQ ID NO: 128 (antibody, V domains shown) VH: QLQLVESGGGVVQPGRSLRLSCAASGFTFSSYGMHWVRQAPGKGLEWVAVIWYDGSSEYYADSVKGRFTISRDNSKNTLFLQMNSLRADDTAVYYCARENVYGSGWFFDYWGQGTLVTVSS VL: EIVMTQSPATLSVSPGERASLSCRASQSVGSNLAWYQQKPGQAPRLLIFGASTRATGIPARFSGSRSGTEFTLTISSLQSEDFALYYCQQYDNWPPWTFGQGTKLEIK | (+++) | (+) |  |  | 
36A12_21C1: human anti-IL1RAP antibody, VH SEQ ID NO: 144, VL SEQ ID NO: 147 (antibody, V domains shown) VH: EVQLVESGGGLVQPGGSLRLSCAASGFTLSFYWMTWVRQAPGKGLEWVANIKQDGNEKNYVDSVKGRFTISKDNAKKSVFLQMNSLRAEDTAVYYCAREGYFGSGYFDYWGQGTLVTVSS VL: DIQMTQSPSTLSASVGDRVTITCRASQSINSWLAWYQQKPGKAPKLLIYKASTLESGVPSRFSGSGSGTEFTLTISSLQPDDFAPYYCQHYNSYPHTFGQGTKVEIK | (+++) | (+) |  | (+++) | 
